In assay [1] the target is T1, recombinant human complement factor H (CFH), isolated from moss (human, UniProt P08603 19-1231).
T1 chain: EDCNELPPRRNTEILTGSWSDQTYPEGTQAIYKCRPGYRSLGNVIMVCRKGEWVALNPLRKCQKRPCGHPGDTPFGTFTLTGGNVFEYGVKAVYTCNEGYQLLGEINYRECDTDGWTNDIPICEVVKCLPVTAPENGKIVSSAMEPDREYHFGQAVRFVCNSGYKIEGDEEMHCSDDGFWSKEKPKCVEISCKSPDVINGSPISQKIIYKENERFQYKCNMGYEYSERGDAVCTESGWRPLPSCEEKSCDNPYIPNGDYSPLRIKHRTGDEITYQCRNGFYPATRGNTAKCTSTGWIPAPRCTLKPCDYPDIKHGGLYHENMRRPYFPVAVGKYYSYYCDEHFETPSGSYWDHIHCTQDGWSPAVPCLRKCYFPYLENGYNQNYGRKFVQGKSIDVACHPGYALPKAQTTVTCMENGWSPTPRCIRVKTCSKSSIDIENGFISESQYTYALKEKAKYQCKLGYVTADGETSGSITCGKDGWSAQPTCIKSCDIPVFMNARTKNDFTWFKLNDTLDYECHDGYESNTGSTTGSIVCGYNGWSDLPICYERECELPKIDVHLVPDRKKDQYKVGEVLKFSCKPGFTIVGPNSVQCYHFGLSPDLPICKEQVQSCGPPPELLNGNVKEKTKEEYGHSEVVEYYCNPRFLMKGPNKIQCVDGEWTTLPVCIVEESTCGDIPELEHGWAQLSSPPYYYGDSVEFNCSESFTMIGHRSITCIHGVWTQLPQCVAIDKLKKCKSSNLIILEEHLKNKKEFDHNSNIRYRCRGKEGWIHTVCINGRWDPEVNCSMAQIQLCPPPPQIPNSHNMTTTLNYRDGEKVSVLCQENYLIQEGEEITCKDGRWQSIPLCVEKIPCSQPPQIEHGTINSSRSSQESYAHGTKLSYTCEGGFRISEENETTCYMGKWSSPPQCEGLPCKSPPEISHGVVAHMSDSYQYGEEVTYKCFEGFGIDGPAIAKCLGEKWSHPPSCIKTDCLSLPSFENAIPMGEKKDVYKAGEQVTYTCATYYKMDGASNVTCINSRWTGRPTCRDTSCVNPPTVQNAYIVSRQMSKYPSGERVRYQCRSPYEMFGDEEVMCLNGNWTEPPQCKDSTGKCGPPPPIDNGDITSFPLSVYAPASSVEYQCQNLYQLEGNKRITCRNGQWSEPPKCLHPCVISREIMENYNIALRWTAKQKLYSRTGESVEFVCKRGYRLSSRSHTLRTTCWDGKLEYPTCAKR
The assay can be described thus: BLI; steady state. Background: BLI is a label-free optical method that tracks binding on a fibre tip over time.

Assay [2] deals with T1, recombinant human complement factor H …. In words: SPR; steady state. A general note: SPR reads the build-up and loss of mass on a sensor chip optically.

The values that follow come from US20230416313A1 (published 2023).

What is called Kd is the free concentration of one partner at which half of the binding sites on the other are occupied at equilibrium, for simple one-to-one binding.

B1: CFH binding protein of SEQ ID NO: 5 (CID 209447) (designed binder)
chain: NAAEADDAQVSAAMEIIMLPNLTLEQAHSFIESLYRDPSVSKEVLGEAQKLNDSQAPK
B1: the Kd in assay [1] stood at 120 nM.

B2: CFH binding protein of SEQ ID NO: 20 (CID 209864) (designed binder)
chain: IAAKFDEAQQAAFYEILHLPNLTELQRNHFIQTLRDDPSVSLWVLGLAQLLNDSQAPKIAAKFDEAQQHAFYTILHLENLTEEQRNAFIQSLRDDPSVSLEVLGEAIKLNISQAPK
As for B2, the Kd in assay [1] was determined as 421 nM.

B3: 209202 (protein)
chain: NAADLDEAQISAIFEIMDLPNLTWQQQEWFIDSLSDDPSVSKEVLGEAQKLNDSQAPK
With B3, the Kd in assay [2] was determined as 35 nM.
